Experimental data from the supplement of paper PMC6757056.
± gives the standard deviation of the averaged measurements.

B1: library; a variant is named by its letters at N, in order (parent)
chain: GCUGUCACCGGUGCUUGGUACGUUAUAUUCAGCCGGUCUGAUGAGUCUNNNNNNAGACGAAACAGC

Assays:
(6R,S)-folinic acid [1] = variants of: B1; assay: FACS-Seq fitted mean relative fluorescence mCherry/BFP without ligand (log10 relative fluorescence); HEK293T overexpressing SLC46A1; higher = higher reporter protein expression; details: without (6R,S)-folinic acid; ligand present: no
In short: (§1)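 HEK293T libraries were made by lentiviral transduction with a ribozyme-switch mCherry reporter and an EF1α-BFP marker, enriched, and incubated with or without ligand for 48 h. Cells were sorted into 6 mCherry/BFP bins, and each bin's genomic DNA was PCR-amplified, barcoded and run on MiSeq. Fluorescence was derived by normal fitting of the bin counts. The fitted log10(mCherry/BFP) mean was scaled to five spiked-in control ribozymes.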

(6R,S)-folinic acid [2] = variants of: B1; assay: normalized RNA/DNA level without ligand (relative to sTRSVctl = 100) (log10 (% of sTRSVctl)); HEK293T overexpressing SLC46A1; higher = less ribozyme self-cleavage, higher mRNA level; details: without (6R,S)-folinic acid; ligand present: no
In short: (§2)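 Only sequences with at least 100 DNA reads were analyzed, from HEK293T cells transfected with 4 µg per 6-well well of ribozyme switch library plasmids 72 h before RNA extraction with EDTA. Any ligand was added 1 h before transfection. RNA level was defined as RNA over DNA reads, normalized to a spiked-in non-cleaving sequence or to the top sequences, then scaled and log-transformed. The top set was 25 sequences, and the scaling was ×100 followed by log10.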

(6R,S)-folinic acid [3] = variants of: B1; assay: FACS-Seq fitted mean relative fluorescence mCherry/BFP with ligand (log10 relative fluorescence); HEK293T overexpressing SLC46A1; ligand concentration (+) FACS-Seq: 6 mM; higher = higher reporter protein expression; details: with (6R,S)-folinic acid; ligand present: yes
In short: as §1

(6R,S)-folinic acid [4] = variants of: B1; assay: normalized RNA/DNA level with ligand (relative to sTRSVctl = 100) (log10 (% of sTRSVctl)); HEK293T overexpressing SLC46A1; ligand concentration (+) RNA-Seq: 6 mM; higher = less ribozyme self-cleavage, higher mRNA level; details: with (6R,S)-folinic acid; ligand present: yes
In short: as §2

| Variant | FACS-Seq fitted mean (log10) ((6R,S)-folinic acid [1]) | normalized RNA/DNA level without ligand (log10) ((6R,S)-folinic acid [2]) | FACS-Seq fitted mean (log10) ((6R,S)-folinic acid [3]) | normalized RNA/DNA level with ligand (log10) ((6R,S)-folinic acid [4]) |
| --- | --- | --- | --- | --- |
| GCGAAA | 0.397 ± 0.13 | 1.977 ± 0.0092 | 0.39 ± 0.054 | 2.019 ± 0.017 |
| ACGAAA | 0.141 ± 0.013 | 1.956 ± 0.0063 | -0.0169 ± 0.14 | 2 ± 0.04 |
| GCGAAC | 0.252 ± 0.064 | 1.951 ± 0.002 | 0.261 ± 0.15 | 2.04 ± 0.027 |
| CCGAAG | -0.309 ± 0.021 | 1.869 ± 0.0079 | -0.882 ± 0.26 | 2 ± 0.039 |
| GCGAAG | 0.477 ± 0.0095 | 1.947 ± 0.0035 | 0.576 ± 0.049 | 2.05 ± 0.0089 |
| UCGAAG | -0.0439 ± 0.018 | 1.74 ± 0.041 | -0.0157 ± 0.066 | 1.991 ± 0.0057 |
| ACGAAG | 0.365 ± 0.028 | 1.834 ± 0.0094 | 0.953 ± 0.2 | 1.993 ± 0.017 |
| GCGAAU | 0.583 ± 0.062 | 2.014 ± 0.0084 | 0.3524 ± 0.00074 | 2.047 ± 0.016 |
| UCGAAU | 0.347 ± 0.072 | 1.932 ± 0.013 | 0.308 ± 0.13 | 2 ± 0.044 |
| ACGACA | -0.43 ± 0.011 | 2.015 ± 0.0095 | -0.351 ± 0.72 | 2.045 ± 0.019 |
| ACGACC | 0.728 ± 0.055 | 2.066 ± 0.015 | 0.641 ± 0.33 | 2.083 ± 0.02 |
| ACGACG | 0.261 ± 0.092 | 1.93 ± 0.021 | 0.213 ± 0.08 | 2.0313 ± 0.0019 |
| UCGACU | 0.225 ± 0.028 | 2.011 ± 0.0057 | 0.701 ± 0.28 | 2.01 ± 0.022 |
| GCGAGA | 0.0695 ± 0.067 | 1.996 ± 0.016 | 0.197 ± 0.13 | 2.03 ± 0.018 |
| CCGAGC | 0.201 ± 0.25 | 2.049 ± 0.0044 | 0.357 ± 0.22 | 2.01 ± 0.03 |
| GCGAGC | 0.231 ± 0.076 | 2.014 ± 0.01 | 0.217 ± 0.14 | 2.036 ± 0.014 |
| UCGAGU | 0.379 ± 0.014 | 1.966 ± 0.014 | 0.483 ± 0.24 | 2.0199 ± 0.0014 |
| UCGAUA | 0.597 ± 0.085 | 1.987 ± 0.0049 | 0.69 ± 0.34 | 2.02 ± 0.026 |
| ACGAUC | 0.555 ± 0.16 | 2.062 ± 0.0089 | 0.363 ± 0.0082 | 2.038 ± 0.0079 |
| GCGAUG | 0.371 ± 0.13 | 1.959 ± 0.008 | 0.407 ± 0.055 | 2.02 ± 0.043 |
| UCGAUG | 0.26 ± 0.021 | 1.797 ± 0.015 | 0.486 ± 0.017 | 1.97 ± 0.039 |
| GCGCAC | 0.472 ± 0.12 | 1.99 ± 0.007 | 0.311 ± 0.17 | 2.01 ± 0.04 |
| UCGCAU | 0.644 ± 0.045 | 1.97 ± 0.018 | 0.661 ± 0.25 | 2 ± 0.042 |
| ACGCCU | -0.804 ± 0.062 | 2.07 ± 0.011 | -1.68 ± 0.58 | 2.06 ± 0.046 |

| Variant | FACS-Seq fitted mean (log10) ((6R,S)-folinic acid [1]) | normalized RNA/DNA level without ligand (log10) ((6R,S)-folinic acid [2]) | FACS-Seq fitted mean (log10) ((6R,S)-folinic acid [3]) | normalized RNA/DNA level with ligand (log10) ((6R,S)-folinic acid [4]) |
| --- | --- | --- | --- | --- |
| GCGCUA | 0.652 ± 0.016 | 2.067 ± 0.018 | 0.697 ± 0.34 | 2.05 ± 0.021 |
| ACGCUU | -0.382 ± 0.065 | 2.057 ± 0.018 | -0.593 ± 0.26 | 2.047 ± 0.0046 |
| UCGGAA | 0.527 ± 0.079 | 1.897 ± 0.0085 | 0.24 ± 0.14 | 1.99 ± 0.037 |
| GCGGAG | 0.2 ± 0.093 | 1.89 ± 0.022 | 0.18 ± 0.029 | 2.01 ± 0.051 |
| UCGGAG | 0.429 ± 0.14 | 1.74 ± 0.019 | 0.837 ± 0.14 | 1.972 ± 0.0045 |
| UCGGAU | 0.33 ± 0.067 | 1.946 ± 0.019 | 0.517 ± 0.14 | 2.01 ± 0.024 |
| ACGGAU | 0.261 ± 0.068 | 1.936 ± 0.017 | 0.344 ± 0.042 | 2.01 ± 0.037 |
| ACGGCA | 0.0556 ± 0.13 | 2.02 ± 0.026 | 0.139 ± 0.39 | 2.04 ± 0.029 |
| UCGGCC | 0.562 ± 0.15 | 2.098 ± 0.0059 | 0.476 ± 0.036 | 2.043 ± 0.011 |
| UCGGCU | 0.288 ± 0.09 | 2.08 ± 0.024 | 0.415 ± 0.31 | 2.06 ± 0.053 |
| ACGGGA | 0.247 ± 0.026 | 1.941 ± 0.0036 | 0.471 ± 0.17 | 2.01 ± 0.038 |
| UCGGUG | -0.084 ± 0.14 | 1.817 ± 0.0011 | 0.096 ± 0.055 | 2 ± 0.03 |
| CCGGUU | 0.218 ± 0.017 | 2.038 ± 0.016 | -0.22 ± 0.1 | 2.01 ± 0.018 |
| UCGGUU | 0.629 ± 0.068 | 2.033 ± 0.0021 | 0.695 ± 0.2 | 2.06 ± 0.023 |
| ACGGUU | 0.41 ± 0.022 | 1.99 ± 0.02 | 0.495 ± 0.047 | 2.01 ± 0.025 |
| GCGUAA | 0.297 ± 0.07 | 1.991 ± 0.014 | 0.2 ± 0.11 | 2.04 ± 0.046 |
| UCGUAA | -0.407 ± 0.028 | 1.937 ± 0.0094 | -0.393 ± 0.27 | 2.007 ± 0.0097 |
| ACGUAA | 0.69 ± 0.24 | 1.962 ± 0.0024 | 0.689 ± 0.3 | 2.006 ± 0.0065 |
| GCGUAC | 0.258 ± 0.3 | 1.974 ± 0.0093 | 0.514 ± 0.11 | 2.02 ± 0.022 |
| UCGUAC | 0.373 ± 0.053 | 2.032 ± 0.019 | 0.343 ± 0.14 | 2.049 ± 0.0073 |
| GCGUAG | 0.314 ± 0.07 | 1.962 ± 0.0022 | 0.372 ± 0.13 | 2.05 ± 0.022 |
| ACGUAG | 0.217 ± 0.032 | 1.912 ± 0.0036 | 0.598 ± 0.16 | 1.9927 ± 0.0014 |
| UCGUCG | 0.35 ± 0.044 | 2.02 ± 0.04 | 0.455 ± 0.16 | 2.06 ± 0.011 |
| ACGUGA | 0.282 ± 0.011 | 1.958 ± 0.012 | 0.173 ± 0.2 | 2.025 ± 0.015 |

| Variant | FACS-Seq fitted mean (log10) ((6R,S)-folinic acid [1]) | normalized RNA/DNA level without ligand (log10) ((6R,S)-folinic acid [2]) | FACS-Seq fitted mean (log10) ((6R,S)-folinic acid [3]) | normalized RNA/DNA level with ligand (log10) ((6R,S)-folinic acid [4]) |
| --- | --- | --- | --- | --- |
| GCGUGG | 0.353 ± 0.032 | 1.968 ± 0.0025 | 0.444 ± 0.14 | 2.06 ± 0.046 |
| ACGUUA | 0.21 ± 0.027 | 1.991 ± 0.011 | 0.285 ± 0.14 | 2.02 ± 0.027 |
| UCGUUG | 0.531 ± 0.029 | 1.881 ± 9.4e-05 | 0.5984 ± 0.0051 | 2.006 ± 0.0038 |
| ACGUUU | -0.149 ± 0.046 | 2.004 ± 0.015 | -0.00103 ± 0.41 | 2.025 ± 0.015 |
| UCUAAA | 0.394 ± 0.046 | 1.977 ± 0.0068 | 0.483 ± 0.022 | 2.018 ± 0.017 |
| ACUAAA | 0.538 ± 0.18 | 1.9903 ± 0.0016 | 0.483 ± 0.097 | 2.022 ± 0.018 |
| ACUAAC | 0.18 ± 0.0049 | 2 ± 0.017 | 0.412 ± 0.046 | 2.01 ± 0.045 |
| CCUAAG | 0.536 ± 0.044 | 1.9074 ± 0.0005 | 0.332 ± 0.0073 | 2.002 ± 0.018 |
| ACUAAG | 0.437 ± 0.1 | 1.924 ± 0.018 | 0.751 ± 0.14 | 2 ± 0.037 |
| CCUAAU | 0.239 ± 0.0063 | 2.041 ± 0.011 | 0.0269 ± 0.022 | 2.07 ± 0.067 |
| GCUAAU | 0.513 ± 0.029 | 1.986 ± 0.0026 | 0.516 ± 0.027 | 2.02 ± 0.022 |
| CCUACA | -0.221 ± 0.03 | 2.02 ± 0.044 | -0.392 ± 0.29 | 2.04 ± 0.043 |
| GCUACA | -0.313 ± 0.09 | 2.017 ± 0.018 | -0.102 ± 0.14 | 2.03 ± 0.05 |
| CCUAGC | 0.339 ± 0.022 | 2.075 ± 0.011 | 0.3 ± 0.46 | 2.053 ± 0.006 |
| GCUAUA | 0.337 ± 0.086 | 1.985 ± 0.014 | 0.51 ± 0.19 | 2.019 ± 0.0034 |
| GCUCAA | 0.44 ± 0.027 | 1.978 ± 0.0021 | 0.374 ± 0.1 | 1.985 ± 0.013 |
| ACUCAA | 0.314 ± 0.088 | 1.973 ± 0.015 | 0.365 ± 0.012 | 2 ± 0.028 |
| GCUCAC | 0.502 ± 0.15 | 2.046 ± 0.0078 | 0.372 ± 0.23 | 2.032 ± 0.01 |
| GCUCAU | -0.192 ± 0.045 | 2.02 ± 0.029 | -0.09 ± 0.67 | 2.009 ± 0.013 |
| ACUCAU | 0.258 ± 0.022 | 2.013 ± 0.0051 | 0.187 ± 0.11 | 2.04 ± 0.029 |
| CCUCCA | 0.578 ± 0.057 | 2.02 ± 0.031 | 0.469 ± 0.016 | 2.04 ± 0.027 |
| UCUCGA | 0.597 ± 0.079 | 2.071 ± 0.012 | 0.413 ± 0.029 | 2.03 ± 0.021 |
| GCUCGU | 0.5943 ± 0.0012 | 2.0305 ± 0.0014 | 0.851 ± 0.091 | 2.02 ± 0.037 |
| UCUCGU | 0.148 ± 0.028 | 1.9916 ± 0.0016 | -0.0695 ± 0.1 | 2.012 ± 0.013 |
